Measurements taken from US20230130599A1 (BEIJING QL BIOPHARMACEUTICAL, published 2023).

Biological target: T1, human GFRAL (human, UniProt Q6UXV0 19-394)
T1 sequence (looked up): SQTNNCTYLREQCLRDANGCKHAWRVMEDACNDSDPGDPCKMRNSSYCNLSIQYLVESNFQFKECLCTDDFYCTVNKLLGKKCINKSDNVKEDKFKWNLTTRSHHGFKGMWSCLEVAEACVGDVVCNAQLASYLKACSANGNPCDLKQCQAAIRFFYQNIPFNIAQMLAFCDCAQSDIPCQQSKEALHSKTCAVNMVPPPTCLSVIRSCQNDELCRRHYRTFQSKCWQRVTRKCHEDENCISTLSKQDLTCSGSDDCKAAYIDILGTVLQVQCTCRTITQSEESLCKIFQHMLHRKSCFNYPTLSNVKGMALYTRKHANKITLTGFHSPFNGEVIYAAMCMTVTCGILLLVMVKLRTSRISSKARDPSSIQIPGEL
Experiment: cell-based or functional assay

1% HSA GDF15 activity (EC50, pM); SRE luciferase reporter: 8.2 pM | HSA free GDF15 activity (EC50, pM); SRE luciferase reporter: 10.3 pM
B1: Native GDF15 (SEQ ID NO: 9) (ligand)
chain: ARNGDHCPLGPGRCCRLHTVRASLEDLGWADWVLSPREVQVTMCIGACPSQFRAANMHAQIKTSLHRLKPDTVPAPCCVPASYNPMVLIQKTDTGVSLQTYDDLLAKDCHCI
